Data taken from patent US20200360435A1 (MIE UNIVERSITY, published 2020).

Target: PE-labeled HLA-A*02:01/Taxp11-19 ([…]) tetramer (human; HTLV-1)
Test: tetramer staining of TCR-transduced human PBMCs, flow cytometry

Binder | percent TCR-positive (tetramer-positive) CD4-positive cells among transfected cells | percent TCR-positive (tetramer-positive) CD8-positive cells among transfected cells
TCR2-1 (TCR, V domains shown, also called TCR having feature (C)) V domain 1: EAQVTQNPRYLITVTGKKLTVTCSQNMNHEYMSWYRQDPGLGLRQIYYSMNVEVTDKGDVPEGYKVSRKEKRNFPLILESPSPNQTSLYFCASSPGLAGGVEQFFGPGTRLTVLE V domain 2: RKEVEQDPGPFNVPEGATVAFNCTYSNSASQSFFWYRQDCRKEPKLLMSVYSSGNEDGRFTAQLNRASQYISLLIRDSKLSDSATYLCVVNIGFGNVLHCGSGTQVIVLP | ≥ 5% | ≥ 10%
TCR5-3 (TCR, V domains shown, also called TCR having feature (G)) V domain 1: GVTQTPKFRVLKTGQSMTLLCAQDMNHEYMYWYRQDPGMGLRLIHYSVGEGTTAKGEVPDGYNVSRLKKQNFLLGLESAAPSQTSVYFCASSYSRDRGWSEAFFGQGTRLTVVE V domain 2: AQKVTQAQTEISVVEKEDVTLDCVYETRDTTYYLFWYKQPPSGELVFLIRRNSFDEQNEISGRYSWNFQKSTSSFNFTITASQVVDSAVYFCALNVMNRDDKIIFGKGTRLHILP | ≥ 5% | ≥ 10%
TCR1-2 (TCR, V domains shown, also called TCR having feature (B)) V domain 1: GAVVSQHPSRVICKSGTSVKIECRSLDFQATTMFWYRQFPKKSLMLMATSNEGSKATYEQGVEKDKFLINHASLTLSTLTVTSAHPEDSSFYICSARYGEVAFFGQGTRLTVVE V domain 2: GENVEQHPSTLSVQEGDSAVIKCTYSDSASNYFPWYKQELGKGPQLIIDIRSNVGEKKDQRIAVTLNKTAKHFSLHITETQPEDSAVYFCAASRDNNDMRFGAGTRLTVKP | ≥ 5% | ≥ 10%
TCR2-2 (TCR, V domains shown, also called TCR having feature (D)) V domain 1: GAVVSQHPSRVICKSGTSVKIECRSLDFQATTMFWYRQFPKKSLMLMATSNEGSKATYEQGVEKDKFLINHASLTLSTLTVTSAHPEDSSFYICSARAGGDTFGSGTRLTVVE V domain 2: AQSVTQLDSHVSVSEGTPVLLRCNYSSSYSPSLFWYVQHPNKGLQLLLKYTSAATLVKGINGFEAEFKKSETSFHLTKPSAHMSDAAEYFCVVSVNDYKLSFGAGTTVTVRA | ≥ 5% | ≥ 10%
TCR5-2 (TCR, V domains shown, also called TCR having feature (F)) V domain 1: GAVVSQHPSRVICKSGTSVKIECRSLDFQATTMFWYRQFPKKSLMLMATSNEGSKATYEQGVEKDKFLINHASLTLSTLTVTSAHPEDSSFYICSAKASEQYFGPGTRLTVTE V domain 2: SQQGEEDPQALSIQEGENATMNCSYKTSINNLQWYRQNSGRGLVHLILIRSNEREKHSGRLRVTLDTSKKSSSLLITASRAADTASYFCAADNYGQNFVFGPGTRLSVLP | ≥ 5% | ≥ 10%
